Data on one molecule can be found in article PMC5384220, “Highly selective inhibition of histone demethylases by de novo macrocyclic peptides” (Nature Communications, 2017).

One assay addresses T1, KDM2A (human, UniProt Q9Y2K7 1-1162).
T1 sequence (looked up): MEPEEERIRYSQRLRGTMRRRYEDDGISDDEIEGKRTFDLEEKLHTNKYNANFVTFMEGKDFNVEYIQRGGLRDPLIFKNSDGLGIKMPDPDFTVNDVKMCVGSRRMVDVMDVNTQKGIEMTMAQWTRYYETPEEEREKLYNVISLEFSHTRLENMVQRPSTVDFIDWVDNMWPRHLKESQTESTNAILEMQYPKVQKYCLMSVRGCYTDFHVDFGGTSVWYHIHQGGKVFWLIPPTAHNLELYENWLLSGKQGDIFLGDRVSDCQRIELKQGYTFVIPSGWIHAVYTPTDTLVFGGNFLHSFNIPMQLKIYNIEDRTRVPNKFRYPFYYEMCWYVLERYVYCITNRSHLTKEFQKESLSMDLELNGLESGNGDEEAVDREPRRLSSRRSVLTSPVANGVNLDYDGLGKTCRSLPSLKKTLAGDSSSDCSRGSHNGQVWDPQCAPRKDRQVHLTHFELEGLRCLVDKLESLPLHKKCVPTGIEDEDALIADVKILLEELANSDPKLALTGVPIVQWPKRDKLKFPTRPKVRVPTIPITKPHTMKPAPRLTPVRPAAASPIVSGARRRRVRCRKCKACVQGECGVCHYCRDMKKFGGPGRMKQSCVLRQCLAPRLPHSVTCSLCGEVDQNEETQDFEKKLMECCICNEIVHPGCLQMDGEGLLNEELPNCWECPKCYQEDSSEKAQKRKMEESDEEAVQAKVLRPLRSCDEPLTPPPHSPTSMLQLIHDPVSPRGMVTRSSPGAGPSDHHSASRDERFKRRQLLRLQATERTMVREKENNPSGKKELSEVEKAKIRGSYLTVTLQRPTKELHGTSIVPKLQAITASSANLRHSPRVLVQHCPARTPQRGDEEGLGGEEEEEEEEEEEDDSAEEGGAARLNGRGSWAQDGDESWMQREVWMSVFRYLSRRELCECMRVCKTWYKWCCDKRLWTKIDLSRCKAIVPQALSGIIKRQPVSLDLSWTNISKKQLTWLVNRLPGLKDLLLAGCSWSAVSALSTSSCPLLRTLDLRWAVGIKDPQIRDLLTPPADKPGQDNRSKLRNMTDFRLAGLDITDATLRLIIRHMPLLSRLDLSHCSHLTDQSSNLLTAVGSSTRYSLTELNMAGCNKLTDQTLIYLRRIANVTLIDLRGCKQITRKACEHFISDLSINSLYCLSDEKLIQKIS
The assay is described as follows: cell-based or functional assay.

Another assay has as its target factor inhibiting HIF (UniProt Q9NWT6 1-349). Kind of assay: cell-based or functional assay.

Chain of factor inhibiting HIF (Q9NWT6 whole entry): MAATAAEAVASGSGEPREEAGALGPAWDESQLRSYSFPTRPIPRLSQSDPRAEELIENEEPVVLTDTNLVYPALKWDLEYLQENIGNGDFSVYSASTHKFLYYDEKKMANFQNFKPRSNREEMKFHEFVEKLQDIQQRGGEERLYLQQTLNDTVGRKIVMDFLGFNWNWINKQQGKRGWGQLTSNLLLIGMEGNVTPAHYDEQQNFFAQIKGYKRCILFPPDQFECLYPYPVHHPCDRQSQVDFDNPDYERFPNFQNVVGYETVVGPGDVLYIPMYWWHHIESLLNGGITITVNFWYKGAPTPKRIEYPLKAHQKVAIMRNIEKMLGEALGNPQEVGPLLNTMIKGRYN

B1: CP4 (peptide)
chain: YLKSRRSGLTWIPC
modifications: not fully specified; N-terminal L-Tyr (^LTyr library, N-chloroacetyl-L-Tyr) cyclised by a thioether to a downstream cysteine
B1: the “IC50 of inhibition of demethylase activity (AlphaScreen activity assay)” value with KDM2A is above 10 µM. In addition, the “IC50 of inhibition of FIH (MALDI–TOF MS assay)” value with factor inhibiting HIF is above 1000 µM.
